Experimental data taken from patent US20230065562A1, “DUAL CONTROLS FOR THERAPEUTIC CELL ACTIVATION OR ELIMINATION” (Bellicum Pharmaceuticals, Inc., priority 2015, published 2023).
Positions count from the first letter of the chain named. Names may count otherwise. “Also recorded” adds a separate entry of the source.

B1: ^316ATPF^319AVPI: modified iCasp9, ATPF replaced by SMAC/Diablo AVPI (protein, UniProt P55211 1-416, looked up, variant T317V F319I)
chain: MDEADRRLLRRCRLRLVEELQVDQLWDALLSRELFRPHMIEDIQRAGSGSRRDQARQLIIDLETRGSQALPLFISCLEDTGQDMLASFLRTNRQAAKLSKPTLENLTPVVLRPEIRKPEVLRPETPRPVDIGSGGFGDVGALESLRGNADLAYILSMEPCGHCLIINNVNFCRESGLRTRTGSNIDCEKLRRRFSSLHFMVEVKGDLTAKKMVLALLELAQQDHGALDCCVVVILSHGCQASHLQFPGAVYGTDGCPVSVEKIVNIFNGTSCPSLGGKPKLFFIQACGGEQKDHGFEVASTSPEDESPGSNPEPDAVPIQEGLRTFDQLDAISSLPTPSDIFVSYSTFPGFVSWRDPKSGSWYVETLDDIFEQWAHSEDLQSLLLRVANAVSVKGIYKQMPGCFNFLRKKLFFKTS
modifications: FKBP12-F36V fusion (iCasp9), CARD deleted
B2: F319A: modified iCasp9, F319A (protein, UniProt P55211 1-416, looked up, variant F319A)
chain: B1 chain with V317T, I319A
modifications: FKBP12-F36V fusion (iCasp9), CARD deleted
B3: L329G: modified iCasp9, L329G (protein)
chain: VDGFGDVGALESLRGNADLAYILSMEPCGHCLIINNVNFCRESGLRTRTGSNIDCEKLRRRFSSLHFMVEVKGDLTAKKMVLALLELARQDHGALDCCVVVILSHGCQASHLQFPGAVYGTDGCPVSVEKIVNIFNGTSCPSLGGKPKLFFIQACGGEQKDHGFEVASTSPEDESPGSNPEPDATPFQEGLRTFDQGDAISSLPTPSDIFVSYSTFPGFVSWRDPKSGSWYVETLDDIFEQWAHSEDLQSLLLRVANAVSVKGIYKQMPGCFNFLRKKLFFKTSASRA
B4: T317A: modified iCasp9, T317A (protein)
chain: B3 chain with T185A, G197L
B5: S183A: modified iCasp9, S183A (protein)
chain: B3 chain with S51A, G197L
B6: D330V: modified iCasp9, D330V (protein)
chain: B3 chain with G197L, D198V
B7: D330S: modified iCasp9, D330S (protein)
chain: B3 chain with G197L, D198S
B8: A316G: modified iCasp9, A316G (protein)
chain: B3 chain with A184G, G197L
B9: D330N: modified iCasp9, D330N (protein)
chain: B3 chain with G197L, D198N
B10: A331K: modified iCasp9, A331K (protein)
chain: B3 chain with G197L, A199K
B11: T317C: modified iCasp9, T317C (protein)
chain: B3 chain with T185C, G197L
B12: D330G: modified iCasp9, D330G (protein)
chain: B3 chain with G197L, D198G
B13: D330A-S144D: modified iCasp9 double mutant (protein)
chain: B3 chain with S12D, G197L, D198A
B14: D330E: modified iCasp9, D330E (protein)
chain: B3 chain with G197L, D198E
B15: D330A-S144A: modified iCasp9 double mutant (protein)
chain: B3 chain with S12A, G197L, D198A
B16: S196A: modified iCasp9, S196A (protein)
chain: B3 chain with S64A, G197L
B17: L329E: modified iCasp9, L329E (protein)
chain: B3 chain with G197E

These molecules were tested on HEK293T/16 cells (assay: Secreted alkaline phosphatase (SEAP)-based surrogate killing assay of iCasp9 mutants). Conditions: SEAP assay without AP1903.
Format: cell-based, human
Experimental: Early passage HEK293T/16 cells (ATCC, Manassas, Va.) were maintained in IMDM, GlutaMAX™ (Life Technologies, Carlsbad, Calif.) supplemented with 10% FBS, 100 U/mL penicillin, and 100 […] until transfection in a humidified, 37° C., 5% CO2/95% air atmosphere. Cells in logarithmic-phase growth were transiently transfected with 800 ng to 2 μg of expression plasmid encoding iCasp9 mutants and 500 ng of an expression plasmid encoding SRα promoter driven SEAP per million cells in 15-mL conical tubes. […] GeneJammer® Transfection Reagent at a ratio of 3 μl per ug of plasmid DNA was used to transiently transfect HEK293T/16 cells in the absence of antibiotics. 100 μl or 2 mL of the transfection mixture was added to each well in 96-well or 6-well plate, respectively.
Briefly, after 65° C. heat denaturation for 45 minutes to reduce background caused by endogenous (and serum-derived) alkaline phosphatases that are sensitive to heat, 5 μl of supernatants was added to 95 μl of PBS and added to 100 μl of substrate buffer, containing 1 μl of 100 mM 4-methylumbelliferyl phosphate (4-MUP; Sigma, St. Louis, Mo.) re-suspended in 2 M diethanolamine. Hydrolysis of 4-MUP by SEAP produces a fluorescent […] with excitation/emission (355/460 nm), which can be easily measured. Assays were performed in black opaque 96-well plates to minimize fluorescence leakage between wells. […] of the mixture was seeded onto each well of a 96-well plate. […] For the assay, 4-methylumbelliferyl phosphate substrate was hydrolyzed by SEAP to 4-methylumbelliferon, a metabolite that can be excited with 364 nm and detected with an emission filter of 448 nm. Since SEAP is used as a marker for cell viability, reduced SEAP reading corresponds with increased iCaspase-9 activities.

Molecule	Basal Activity (relative to wild type/unmodified Caspase-9)
B1	no effect
B2	no effect
B3	did not lower basal activity; also recorded: Increased
B4	lower basal activity; also recorded: reduce basal activity; also recorded: Decreased
B5	Decreased
B6	less basal activity than wild type Caspase-9; also recorded: Decreased
B7	less basal activity than wild type Caspase-9; also recorded: Decreased
B8	lower basal activity; also recorded: Decreased
B9	less basal activity than wild type Caspase-9; also recorded: Decreased
B10	did not lower basal activity; also recorded: Increased
B11	no effect
B12	less basal activity than wild type Caspase-9; also recorded: Decreased
B13	Decreased
B14	less basal activity than wild type Caspase-9; also recorded: Decreased
B15	Decreased
B16	Decreased
B17	Decreased
